This data set deals with the molecule itself. In words: anti-FLAG immunoblot of cell lysates, reducing (~105 kDa) against non-reducing (~215 kDa) SDS-PAGE. The procedure: Transfection and Immunoblotting. CHO-TRVb cells were maintained in F12-nutrient mixture (Gibco-BRL) supplemented with 5% fetal bovine serum. An amino terminal FLAG-tagged TfR2-α cDNA was subcloned into pcDNA3 (Invitrogen, Carlsbad, Calif.). This plasmid (100 μg) was transfected into CHO-TRVb cells using Lipofectin (Gibco-BRL). For transient expression, cells were harvested 48 h after the transfection. We also isolated a stably expressing clone using G418 (200 μg/ml) selection and a standard limiting dilution method. The protein expression was confirmed by immunoblotting using anti-FLAG (M5) antibody
Tf-binding to the TfR2-α Transfected Cells. To analyze the function of TfR2-α, we stably transfected CHO-TRVb cells, which lack functional TfR, with FLAG-tagged TfR2-α. FIGS. 6A, 6B and 6C show the expression and functional analysis of TfR2-α protein. In FIG. 6A, Tf-binding to the cell surface was examined in neomycin resistant control CHO-TRVb cells (left panels), FLAG-tagged TfR2-α stably transfected cells (middle) and TRVb-1,TfR stably transfected cells (right). The cells were incubated with 5 μg/ml of biotinylated human holo-Tf in MEM a media for 30 min on ice. After washing with PBS, the cells were incubated with streptavidin-PE, and analyzed by flow cytometry. […] After transferring to a PVDF membrane, FLAG-fusion proteins were detected by immunoblotting. […]
(In general: A western blot detects proteins with antibodies after separation by electrophoresis.)

B1: FLAG-tagged TfR2-α (transferrin receptor 2, α form), expressed on transfected CHO-TRVb cells (receptor)
chain: MERLWGLFQRAQQLSPRSSQTVYQRVEGPRKGHLEEEEEDGEEGAETLAHFCPMELRGPEPLGSRPRQPNLIPWAAAGRRAAPYLVLTALLIFTGAFLLGYVAFRGSCQACGDSVLVVSEDVNYEPDLDFHQGRLYWSDLQAMFLQFLGEGRLEDTIRQTSLRERVAGSAGMAALTQDIRAALSRQKLDHVWTDTHYVGLQFPDPAHPNTLHWVDEAGKVGEQLPLEDPDVYCPYSAIGNVTGELVYAHYGRPEDLQDLRARGVDPVGRLLLVRVGVISFAQKVTNAQDFGAQGVLIYPEPADFSQDPPKPSLSSQQAVYGHVHLGTGDPYTPGFPSFNQTQFPPVASSGLPSIPAQPISADIASRLLRKLKGPVAPQEWQGSLLGSPYHLGPGPRLRLVVNNHRTSTPINNIFGCIEGRSEPDHYVVIGAQRDAWGPGAAKSAVGTAILLELVRTFSSMVSNGFRPRRSLLFISWDGGDFGSVGSTEWLEGYLSVLHLKAVVYVSLDNAVLGDDKFHAKTSPLLTSLIESVLKQVDSPNHSGQTLYEQVVFTNPSWDAEVIRPLPMDSSAYSFTAFVGVPAVEFSFMEDDQAYPFLHTKEDTYENLHKVLQGRLPAVAQAVAQLAGQLLIRLSHDRLLPLDFGRYGDVVLRHIGNLNEFSGDLKARGLTLQWVYSARGDYIRAAEKLRQEIYSSEERDERLTRMYNVRIMRVEFYFLSQYVSPADSPFRHIFMGRGDHTLGALLDHLRLLRSNSSGTPGATSSTGFQESRFRRQLALLTWTLQGAANALSGDVWNIDNNF
notes: The text describes TfR2-α as residues 1-801 (cytoplasmic 1-80, transmembrane 81-104, extracellular 105-801); Expressed from pcDNA3 in TfR-deficient CHO-TRVb cells, both stably and transiently; A disulfide-linked dimer is inferred from the non-reducing immunoblot; also called TfR2 cells; TfR2-α cells; not shown: amino terminal FLAG tag
For the protein B1, the binding result is on record as “binds”.

The record behind these values is patent publication US6891028 (CEDARS SINAI MEDICAL CENTER, dated 2005).
